Data as given in publication PMC2637432.

Target: human cytomegalovirus (HCMV)-encoded chemokine receptor US28, HA-tagged (human cytomegalovirus (HCMV)) (UniProt P69332)
UniProt P69332, sequence (P69332 whole entry): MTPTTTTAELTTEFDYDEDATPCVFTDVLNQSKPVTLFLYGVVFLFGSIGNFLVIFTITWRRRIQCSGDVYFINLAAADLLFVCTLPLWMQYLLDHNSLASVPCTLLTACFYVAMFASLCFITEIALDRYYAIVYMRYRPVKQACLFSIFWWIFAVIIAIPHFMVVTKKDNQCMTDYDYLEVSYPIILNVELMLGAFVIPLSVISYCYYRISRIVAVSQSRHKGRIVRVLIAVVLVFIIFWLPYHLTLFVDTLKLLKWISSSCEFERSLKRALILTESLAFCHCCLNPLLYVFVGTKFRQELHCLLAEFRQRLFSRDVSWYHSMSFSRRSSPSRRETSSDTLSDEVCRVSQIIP

Substance: recombinant human Fractalkine (from UniProt P78423 25-341) (ligand)
- lowest Fractalkine concentration that blocked migration of US28-expressing SMC induced by 40 ng/ml RANTES (competition migration assay): 10 ng/mL
